# Numbering of substitutions follows the chain as printed.
# B1: LG192F2 (VHH)
# VHH: EVQLVESGGGLVQAGGSLRLSCEASGRTFSPIAMGWFRQAPGKEREFVAVVTRWSGARTVYADSVKGRFTISRDNAENTVYLQMNSLKPEDTAVYTCAADSTNRNSGAIYYTWAYDYWGQGTQVTVSS
# B2: LG191D3 (VHH)
# VHH: EVQLVESGGGLVQAGGSLRLSCEASGRTYSRYGMGWFRQAPGKEREFVAAVSRLSGPRTVYADSVKGRFTISRDNAENTVYLQMNSLKPEDTAVYTCAAELTNRNSGAYYYAWAYDYWGQGTQVTVSS
# B3: LG192C6 (VHH)
# VHH: B1 VHH with F29E, S30R, P31Y, I32Q, S106R
# B4: LG192H2 (VHH)
# VHH: B1 VHH with P31N, I32Y, A57G, I109W, Y117H
# B5: LG192H1 (VHH)
# VHH: EVQLVESGGGLVQAGGSLRLSCAASGIIFSTNHMGWYRRAPGKQRELVGTINRGDSPYYADSVKGRFTISRDNAKNMVYLQMNSLKPEDTAVYYCNAGYIYWGQGTQVTVSS
# B6: LG192A8 (VHH)
# VHH: EVQLVESGGGLVQAGGSLRLSCAASERTVIAYTMGWFRRAPGKERDFVAAMNWNGGNTIYADSAKGRFTISRDNAKNTVYLQMNSLKAEDTAVYYCAARPRFWGSYEYDYWGQGTQVTVSS
# B7: LG192B1 (VHH)
# VHH: EVQLVESGGGLVQPGGSLRLSCAASGLTFRNYAIGWFRQAPGKEREGVSCINSGGSITDYLDSVKGRFAISRDNAKSTVYLQMNSLKPEDTAVYYCATDLTSSCPIYSGTDYWGKGTLVTVSS
# B8: LG192C10 (VHH)
# VHH: EVQLVESGGGLVQAGGSLRLSCAASEGYFRNYMVGWFRQAPGGERMFVAAISDTAYYADSVKGRFTISRDNAKNTVYLPMNSLKPEDTAVYYCAAAPKSWGTWPLVADTRSYHFWGQGTQVTVSS
# B9: LG191E4 (VHH)
# VHH: EVQLVESGGGLVQAGGSLRLSCAASGPTFSADTMGWFRQAPGKEREFVATIPWSGGIAYYSDSVKGRFTMSRDNAKNTVDLQMNSLKPEDTALYYCAGSSRIYIYSDSLSERSYDYWGQGTQVTVSS
# B10: LG192C4 (VHH)
# VHH: EVQLVESGGGLVQAGGSLRLSCEASGRTFSSYAMVGWFRQAPGKEREFVAAVTRWSGARTVYADSVKGRFTISRDNAENTVYLQMNSLKPEDTAVYTCAADSTNRNSGAVYYSWAYDYWGQGTQVTVSS
# B11: LG191B9 (VHH)
# VHH: EVQLVESGGGLVQAGGSLRLSCAASGRTFSSSFMAWFRQVLGSDREFVGGISPGGRFTYYADSRKGRFTISGDNANNTVYLQMHSVKPEDTATYYCAADTQFSGYVPKETNEYDYWGQGTQVTVSS
# B12: NC41v06 (VHH)
# VHH: EVQLLESGGGLVQPGGSLRLSCAASGGSLSNYVLGWFRQAPGKGREFVAAINWRDDITIGPPNVEGRFTISRDNAKNTLYLQMNSLRPEDTAVYYCGAGTPLNPGAYIYDWSYDYWGQGTLVTVSS
# B13: NC41 (VHH)
# VHH: EVQLVESGGGLVQAGGSLSISCAASGGSLSNYVLGWFRQAPGKEREFVAAINWRGDITIGPPNVEGRFTISRDNAKNTGYLQMNSLAPDDTAVYYCGAGTPLNPGAYIYDWSYDYWGRGTQVTVSS
# B14: NC41v17 (VHH)
# VHH: B12 VHH with D55G, A75S
# B15: PMP13B4 (VHH)
# VHH: EVQLVESGGGLVQAGGSLRLSCAASGFTFDDYAIGWFRQAPGKEREAVSCISSSDGSTYYADSVKGRFTISSDNAKNMVYLQMNSLKPEDTAVYYCAADLLRTAVGCLDYRGTYYPRTTMDYRGKGTLVTVSS
# B16: PMP13E12 (VHH)
# VHH: EVQLVESGGGLVQAGGSLRLSCAASGRTFSRYIMGWFRQAPGKEREFVGAISRSGDITSFADFVKGRFTMSRDNAKNTLYLQMNSLEPEDTAVYSCAANSDTYYIYSDIVVPERYDYWGQGTQVTVSS
# B17: PMP8B10 (VHH)
# VHH: EVQLVESGGGLVQAGASLRLSCAASGLAFSRYAMGWFRQAPGKERESVAAISSSGDNIYYADSVKGQFTMSRDNAKSSVYLQMINLKPEDTAVYYCAATSPLFVASDYFEASRYGYWGQGTQVTVSS
# B18: PMP13D1 (VHH)
# VHH: EVQLVESGGGLVQPGGSLRLSCATSGFTEDYYVIGWFRQAPGKEREGVSCMSSSGDSTTYADSVKGRFTISRDNAKNMVYLQMTSLKPEDTAVYYCAADFALGCYSGSYYPRYDYWGQGTQVTVSS
# B19: PMP13A1 (VHH)
# VHH: EVQLVESGGGLVQPGGSLRLSCAASGLTLDYYALGWFRQAPGKEREGVSCISSADHSTTYADSVKGRFTISWDNAKNTVYLQMNSLKPEDTAVYYCAADPALGCYSGNYYPRYDYWGQGTQVTVSS
# B20: PMP19E2 (VHH)
# VHH: B19 VHH with A54S, S57T, A61T, V79L, N108S, Y115F
# B21: PMP1B2 (VHH)
# VHH: B9 VHH
# B22: PMP23E5 (VHH)
# VHH: EVQLMESGGGLVQAGGSLRLSCAASGGTFSSYAMGWFRQAPGEERDFVAAIGWSGNSPYYAQFVKGRFTISRDNAKNTVHLQMNSLKPEDTAVYYCAAAHNTMGSDYEGYDYWGQGTQVTVSS
# B23: PMP13C1 (VHH)
# VHH: EVQLVESGGGLVQPGGSLRLSCEASGFTWDYYVIGWFRQAPGKEREGLSCISSDGSTTYADSVKGRFTISRDNAKNTVYLQMNSLEPEDTAVYYCATDPALGCYSGSYYPRYDYWGQGTQVTVSS
# B24: PMP1A2 (VHH)
# VHH: EVQLVESGGGLVQAGGSLRLSCAASERTFSYYAMGWFRQAPGKEREFVATISRSGEWIYYKDAMKGRFTISRDNANNAVYLQMNSLQPEDTAIYYCAADSLGGFRSASDYYNTNTYAYWGQGTQVTVSS
# B25: PMP8A1 (VHH)
# VHH: EVQLVESGGGLVQPGGSLRVSCAASGFTFNDYIMGWFRQAPGKERMFIAAISGTGTIKYYGDLVRGRFTISRDNAKNTVYLRIDSLNPEDTAVYYCAARQDYGLGYRESHEYDYWGQGTQVTVSS
# Target: T1, hRSV FTM- protein (membrane anchorless form of the fusion protein, 70 kDa) (human respiratory syncytial virus, UniProt P12568 26-524)
# T1 construct: extracellular domain
# Experiment: SPR (Biacore T100), FTM- amine-coupled on CM5 chip, 1:1 Langmuir fit
Binder,Kd,koff,kon
B1,7.14 nM,0.00577 s⁻¹,807000 M⁻¹ s⁻¹
B2,2.05 nM,0.00324 s⁻¹,1.59e+06 M⁻¹ s⁻¹
B3,7 nM,0.00808 s⁻¹,1.15e+06 M⁻¹ s⁻¹
B4,15.4 nM,0.0128 s⁻¹,829000 M⁻¹ s⁻¹
B5,3.72 nM,0.00611 s⁻¹,1.65e+06 M⁻¹ s⁻¹
B6,2.91 nM,0.000937 s⁻¹,322000 M⁻¹ s⁻¹
B7,55.5 nM,0.0127 s⁻¹,229000 M⁻¹ s⁻¹
B8,3.49 nM,0.000613 s⁻¹,175000 M⁻¹ s⁻¹
B9,0.7 nM,0.000208 s⁻¹,298000 M⁻¹ s⁻¹
B10,7.47 nM,0.00846 s⁻¹,1.13e+06 M⁻¹ s⁻¹
B11,25.4 nM,0.00492 s⁻¹,194000 M⁻¹ s⁻¹

# Target: T2, FTM-NN (membrane anchorless form of the Long fusion protein, 70 kDa) (human respiratory syncytial virus, …, UniProt P12568 26-524)
# T2 construct: domain: membrane anchorless form of the fusion protein
# Experiment: SPR (Biacore), Ftm-NN protein immobilized on chip, Nanobody as analyte
Binder,Kd,koff,kon
B12,2.5 nM,0.0048 s⁻¹,2e+06 M⁻¹ s⁻¹
B13,4 nM,0.0067 s⁻¹,1.7e+06 M⁻¹ s⁻¹
B14,3.2 nM,0.0059 s⁻¹,1.9e+06 M⁻¹ s⁻¹

# Target: T3, FTM-NN protein (membrane anchorless form of the Long fusion protein of hRSV, 70 kDa) (human respiratory syncytial virus, …, UniProt P12568 26-524)
# Experiment: competition ELISA, periplasmic extract diluted 1:100, competitor 101F Fab
row,Binder,% Inhibition 101F Fab (1:100 PE)
1,B15,82%
2,B16,74%
3,B17,56%
4,B18,78%
5,B19,74%
6,B20,74%
7,B21,82%
8,B22,37%
9,B23,57%
10,B24,82%

# Target: T3, FTM-NN protein (membrane anchorless …)
# Experiment: competition ELISA, periplasmic extract diluted 1:300, competitor 101F Fab
row,Binder,% Inhibition 101F Fab (1:300 PE)
1,B15,47%
2,B16,28%
3,B25,55%
4,B17,31%
5,B18,52%
6,B19,46%
7,B20,27%
8,B21,58%
9,B22,16%
10,B23,37%
11,B24,27%

# Target: T3, FTM-NN protein (membrane anchorless …)
# Experiment: competition ELISA, periplasmic extract diluted 1:1000, competitor 101F Fab
row,Binder,% Inhibition 101F Fab (1:1000 PE)
1,B15,20%
2,B16,8%
3,B25,20%
4,B17,6%
5,B18,16%
6,B19,13%
7,B20,5%
8,B21,25%
9,B23,9%
10,B24,5%

# Target: T3, FTM-NN protein (membrane anchorless …)
# Experiment: ELISA, periplasmic extract on immobilised F protein; signal as fold over blank
row,Binder,"Binding RSV-A, Fold blanc"
1,B15,2.7 fold over blank
2,B16,3.7 fold over blank
3,B25,3.7 fold over blank
4,B17,3.5 fold over blank
5,B18,3.1 fold over blank
6,B19,2.9 fold over blank
7,B20,3.5 fold over blank
8,B21,3.8 fold over blank
9,B22,3.4 fold over blank
10,B23,3 fold over blank
11,B24,4 fold over blank
